Source: paper PMC11969024 (2025)

B1: peptide HD2 (from tick evasin EVA4) / CCL19 (biotinylated, synthetic) (parent complex)
chain 1: EEDDYTAYAPLTCYFT
chain 2: GTNDAEDCCLSVTQKPIPGYIVRNFHYLLIKDGCRVPAVVFTTLRGRQLCAPPDQPWVERIIQRLQRTSAKMKRRSS

Variants of: B1

Row | Variant | enrichment
1 | chain 1 EEDDYTAYAPLTCYTT [chain 1 F15T] | -3.97 log2 (difference from the parental peptide)
2 | chain 1 EEDDYTAYAPLTCYFD [chain 1 T16D] | -1.5 log2 (difference from the parental peptide)
3 | chain 1 SEDDYTAYAPLTCYFT [chain 1 E1S] | -6.42 log2 (difference from the parental peptide)
4 | chain 1 EEDDYTAYAPLTCYHT [chain 1 F15H] | -3.96 log2 (difference from the parental peptide)
5 | chain 1 EEFDYTAYAPLTCYFT [chain 1 D3F] | -3.58 log2 (difference from the parental peptide)
6 | chain 1 EEYDYTAYAPLTCYFT [chain 1 D3Y] | -0.734 log2 (difference from the parental peptide)
7 | chain 1 EEDDYTEYAPLTCYFT [chain 1 A7E] | -0.397 log2 (difference from the parental peptide)
8 | chain 1 EEDSYTAYAPLTCYFT [chain 1 D4S] | -6.25 log2 (difference from the parental peptide)
9 | chain 1 EMDDYTAYAPLTCYFT [chain 1 E2M] | 0.392 log2 (difference from the parental peptide)
10 | chain 1 EDDDYTAYAPLTCYFT [chain 1 E2D] | 2.11 log2 (difference from the parental peptide)
11 | chain 1 EELDYTAYAPLTCYFT [chain 1 D3L] | -2.95 log2 (difference from the parental peptide)
12 | chain 1 AEDDYTAYAPLTCYFT [chain 1 E1A] | -5.3 log2 (difference from the parental peptide)
13 | chain 1 PEDDYTAYAPLTCYFT [chain 1 E1P] | -6.51 log2 (difference from the parental peptide)
14 | chain 1 EEDWYTAYAPLTCYFT [chain 1 D4W] | 0.498 log2 (difference from the parental peptide)
15 | chain 1 EEDDYTAYCPLTCYFT [chain 1 A9C] | -8.06 log2 (difference from the parental peptide)
16 | chain 1 ENDDYTAYAPLTCYFT [chain 1 E2N] | -1.08 log2 (difference from the parental peptide)
17 | chain 1 EEDDYWAYAPLTCYFT [chain 1 T6W] | 7.55 log2 (difference from the parental peptide)
18 | chain 1 EEDIYTAYAPLTCYFT [chain 1 D4I] | -2.59 log2 (difference from the parental peptide)
19 | chain 1 EEDDYTMYAPLTCYFT [chain 1 A7M] | 2.5 log2 (difference from the parental peptide)
20 | chain 1 ESDDYTAYAPLTCYFT [chain 1 E2S] | -0.165 log2 (difference from the parental peptide)
21 | chain 1 EEDDYTAYAPKTCYFT [chain 1 L11K] | -3.64 log2 (difference from the parental peptide)
22 | chain 1 EEDDYTAYAPLTCYFF [chain 1 T16F] | -0.403 log2 (difference from the parental peptide)
23 | chain 1 ELDDYTAYAPLTCYFT [chain 1 E2L] | 0.769 log2 (difference from the parental peptide)

Row | Variant | enrichment
24 | chain 1 EEDDYTAYAPLTCYFS [chain 1 T16S] | -1.7 log2 (difference from the parental peptide)
25 | chain 1 EEWDYTAYAPLTCYFT [chain 1 D3W] | 0.0843 log2 (difference from the parental peptide)
26 | chain 1 EEDDYTAYAPLTCYET [chain 1 F15E] | -4.2 log2 (difference from the parental peptide)
27 | chain 1 EEDDYTAYAPLTCYFQ [chain 1 T16Q] | -5.8 log2 (difference from the parental peptide)
28 | chain 1 EEDDYTAYAPLTCYFR [chain 1 T16R] | -6.57 log2 (difference from the parental peptide)
29 | chain 1 EEDDYYAYAPLTCYFT [chain 1 T6Y] | 4.88 log2 (difference from the parental peptide)
30 | chain 1 EEDDYTAYAPLTCYFC [chain 1 T16C] | -6.65 log2 (difference from the parental peptide)
31 | chain 1 EEDDYTAYYPLTCYFT [chain 1 A9Y] | 0.673 log2 (difference from the parental peptide)
32 | chain 1 EEDMYTAYAPLTCYFT [chain 1 D4M] | -3.6 log2 (difference from the parental peptide)
33 | chain 1 ERDDYTAYAPLTCYFT [chain 1 E2R] | -2.64 log2 (difference from the parental peptide)
34 | chain 1 EEDDYTAYAPLMCYFT [chain 1 T12M] | 1.53 log2 (difference from the parental peptide)
35 | chain 1 EEDDYTKYAPLTCYFT [chain 1 A7K] | -3.29 log2 (difference from the parental peptide)
36 | chain 1 EEDDYTAYAPLTCYQT [chain 1 F15Q] | -4.06 log2 (difference from the parental peptide)
37 | chain 1 EEDDYTAYLPLTCYFT [chain 1 A9L] | -1.81 log2 (difference from the parental peptide)
38 | chain 1 EEDDYTAYATLTCYFT [chain 1 P10T] | -5.84 log2 (difference from the parental peptide)
39 | chain 1 FEDDYTAYAPLTCYFT [chain 1 E1F] | -0.113 log2 (difference from the parental peptide)
40 | chain 1 EEDDYTSYAPLTCYFT [chain 1 A7S] | -2.1 log2 (difference from the parental peptide)
41 | chain 1 EEDDYTHYAPLTCYFT [chain 1 A7H] | -0.764 log2 (difference from the parental peptide)
42 | chain 1 EEDDYTAYAPLLCYFT [chain 1 T12L] | 2.69 log2 (difference from the parental peptide)
43 | chain 1 EEDDYTAYAPMTCYFT [chain 1 L11M] | -1.53 log2 (difference from the parental peptide)
44 | chain 1 EEDDYTAYTPLTCYFT [chain 1 A9T] | -6.55 log2 (difference from the parental peptide)
45 | chain 1 EEDDYTAYMPLTCYFT [chain 1 A9M] | -0.965 log2 (difference from the parental peptide)
46 | chain 1 EEDDYTAYAPLTCGFT [chain 1 Y14G] | -9.47 log2 (difference from the parental peptide)

Row | Variant | enrichment
47 | chain 1 EEDDYTAYALLTCYFT [chain 1 P10L] | -6.31 log2 (difference from the parental peptide)
48 | chain 1 EEDDYTAYAPLTCFFT [chain 1 Y14F] | -2.54 log2 (difference from the parental peptide)
49 | chain 1 EEDDYTAYFPLTCYFT [chain 1 A9F] | -2.77 log2 (difference from the parental peptide)
50 | chain 1 EEDDYTAYAPLTCYPT [chain 1 F15P] | -6.33 log2 (difference from the parental peptide)
51 | chain 1 GEDDYTAYAPLTCYFT [chain 1 E1G] | -6.21 log2 (difference from the parental peptide)
52 | chain 1 EEDDYTAYAPTTCYFT [chain 1 L11T] | -3.41 log2 (difference from the parental peptide)
53 | chain 1 EEDDYTAYAPPTCYFT [chain 1 L11P] | -5.49 log2 (difference from the parental peptide)
54 | chain 1 EEDDYGAYAPLTCYFT [chain 1 T6G] | 1.65 log2 (difference from the parental peptide)
55 | chain 1 EEDDYTAYAPLCCYFT [chain 1 T12C] | -7.61 log2 (difference from the parental peptide)
56 | chain 1 EEDDYTAYAPLTCPFT [chain 1 Y14P] | -7.82 log2 (difference from the parental peptide)
57 | chain 1 EEDDYTAYAPLTCYVT [chain 1 F15V] | -3.63 log2 (difference from the parental peptide)
58 | chain 1 EEDDYTAYAVLTCYFT [chain 1 P10V] | -9.35 log2 (difference from the parental peptide)
59 | chain 1 EEDDNTAYAPLTCYFT [chain 1 Y5N] | -6.68 log2 (difference from the parental peptide)
60 | chain 1 EEDDYTAYAPLTCYFW [chain 1 T16W] | 0.831 log2 (difference from the parental peptide)
61 | chain 1 EENDYTAYAPLTCYFT [chain 1 D3N] | -6.84 log2 (difference from the parental peptide)
62 | chain 1 EEDVYTAYAPLTCYFT [chain 1 D4V] | -4.18 log2 (difference from the parental peptide)
63 | chain 1 NEDDYTAYAPLTCYFT [chain 1 E1N] | -2.91 log2 (difference from the parental peptide)
64 | chain 1 EEDDYTAYAPLFCYFT [chain 1 T12F] | 3.41 log2 (difference from the parental peptide)
65 | chain 1 EEDDYTYYAPLTCYFT [chain 1 A7Y] | 4.06 log2 (difference from the parental peptide)
66 | chain 1 TEDDYTAYAPLTCYFT [chain 1 E1T] | -5.43 log2 (difference from the parental peptide)
67 | chain 1 EEDDYTAYAPLICYFT [chain 1 T12I] | 5.78 log2 (difference from the parental peptide)
68 | chain 1 EEDDYTAYAPLTSYFT [chain 1 C13S] | -6.7 log2 (difference from the parental peptide)
69 | chain 1 EEDDSTAYAPLTCYFT [chain 1 Y5S] | -6.07 log2 (difference from the parental peptide)

Row | Variant | enrichment
70 | chain 1 EEDDYTNYAPLTCYFT [chain 1 A7N] | -1.33 log2 (difference from the parental peptide)
71 | chain 1 HEDDYTAYAPLTCYFT [chain 1 E1H] | -5.95 log2 (difference from the parental peptide)
72 | chain 1 EEDQYTAYAPLTCYFT [chain 1 D4Q] | -5.46 log2 (difference from the parental peptide)
73 | chain 1 EEDDYTAYAPLECYFT [chain 1 T12E] | -6.93 log2 (difference from the parental peptide)
74 | chain 1 EEDDYTAYAPLTCYFY [chain 1 T16Y] | -0.692 log2 (difference from the parental peptide)
75 | chain 1 EEDDYTASAPLTCYFT [chain 1 Y8S] | -6.72 log2 (difference from the parental peptide)
76 | chain 1 EEDDYTAHAPLTCYFT [chain 1 Y8H] | -6.54 log2 (difference from the parental peptide)
77 | chain 1 EEDDYTAYAPLTCYYT [chain 1 F15Y] | -1.04 log2 (difference from the parental peptide)
78 | chain 1 EEDFYTAYAPLTCYFT [chain 1 D4F] | -1.53 log2 (difference from the parental peptide)
79 | chain 1 EEDDYTAYAPCTCYFT [chain 1 L11C] | -4.39 log2 (difference from the parental peptide)
80 | chain 1 EEDDYLAYAPLTCYFT [chain 1 T6L] | 1.3 log2 (difference from the parental peptide)
81 | chain 1 EEDDYTAYAPLACYFT [chain 1 T12A] | -4.86 log2 (difference from the parental peptide)
82 | chain 1 EEDDYTAYAPSTCYFT [chain 1 L11S] | -5.08 log2 (difference from the parental peptide)
83 | chain 1 EEDDYTLYAPLTCYFT [chain 1 A7L] | 1.76 log2 (difference from the parental peptide)
84 | chain 1 EEDDYDAYAPLTCYFT [chain 1 T6D] | 2.57 log2 (difference from the parental peptide)
85 | chain 1 VEDDYTAYAPLTCYFT [chain 1 E1V] | -1.37 log2 (difference from the parental peptide)
86 | chain 1 EEDDMTAYAPLTCYFT [chain 1 Y5M] | -5.03 log2 (difference from the parental peptide)
87 | chain 1 EEDDYTAYAPLTCYFL [chain 1 T16L] | 0.688 log2 (difference from the parental peptide)
88 | chain 1 EEDDYTAYAPLTCYLT [chain 1 F15L] | -2.93 log2 (difference from the parental peptide)
89 | chain 1 EEDDFTAYAPLTCYFT [chain 1 Y5F] | -2.5 log2 (difference from the parental peptide)
90 | chain 1 EEDDYTAYAPLTDYFT [chain 1 C13D] | -7.13 log2 (difference from the parental peptide)
91 | chain 1 EEDDYHAYAPLTCYFT [chain 1 T6H] | -2.26 log2 (difference from the parental peptide)
92 | chain 1 EEDDYTAYAFLTCYFT [chain 1 P10F] | -4.06 log2 (difference from the parental peptide)

Row | Variant | enrichment
93 | chain 1 EEDDYTAYAPLTCYFE [chain 1 T16E] | -1.61 log2 (difference from the parental peptide)
94 | chain 1 EEDDYTAYAMLTCYFT [chain 1 P10M] | -7.47 log2 (difference from the parental peptide)
95 | chain 1 EEDDITAYAPLTCYFT [chain 1 Y5I] | -6.6 log2 (difference from the parental peptide)
96 | chain 1 EEDDYTAYAPLPCYFT [chain 1 T12P] | -4.32 log2 (difference from the parental peptide)
97 | chain 1 EEDDYTAYAPLTCYFK [chain 1 T16K] | -6.25 log2 (difference from the parental peptide)
98 | chain 1 EEDDYTVYAPLTCYFT [chain 1 A7V] | 0.465 log2 (difference from the parental peptide)
99 | chain 1 EEDDWTAYAPLTCYFT [chain 1 Y5W] | 3.19 log2 (difference from the parental peptide)
100 | chain 1 EEDDYKAYAPLTCYFT [chain 1 T6K] | -1.49 log2 (difference from the parental peptide)
101 | chain 1 EEDDYTAYAPLTCVFT [chain 1 Y14V] | -7.09 log2 (difference from the parental peptide)
102 | chain 1 EEDDYTAYAPLTCYCT [chain 1 F15C] | -6.81 log2 (difference from the parental peptide)
103 | chain 1 EEDDYTAMAPLTCYFT [chain 1 Y8M] | -4.14 log2 (difference from the parental peptide)
104 | chain 1 EEDDYTAYAPLTCYWT [chain 1 F15W] | -0.785 log2 (difference from the parental peptide)
105 | chain 1 EEDDYTAYAYLTCYFT [chain 1 P10Y] | -6.54 log2 (difference from the parental peptide)
106 | chain 1 EEDDYTAYAPLTPYFT [chain 1 C13P] | -6.25 log2 (difference from the parental peptide)
107 | chain 1 EEDDYTAYAPLTCYMT [chain 1 F15M] | -6.46 log2 (difference from the parental peptide)
108 | chain 1 IEDDYTAYAPLTCYFT [chain 1 E1I] | -1.84 log2 (difference from the parental peptide)
109 | chain 1 EEDDCTAYAPLTCYFT [chain 1 Y5C] | -4.33 log2 (difference from the parental peptide)
110 | chain 1 EEDDYTAYAPQTCYFT [chain 1 L11Q] | -1.91 log2 (difference from the parental peptide)
111 | chain 1 EEDDYTAYAPLTCYST [chain 1 F15S] | -6.94 log2 (difference from the parental peptide)
112 | chain 1 EEDDYNAYAPLTCYFT [chain 1 T6N] | -0.836 log2 (difference from the parental peptide)
